Measured values taken from US20250101446A1, “METHOD FOR GENETIC TRANSFORMATION OF PLANT ORGANELLE GENOME AND USES THEREOF” (Solar Grants Biotechnology Inc., priority 2022, published 2025).

Experiments:
[1] = system: human NSCLC cell line NCI-H1792; test: Attenuation of P1-induced IL-6 secretion in NCI-H1792 cells by pre-treatment with plant-produced cytokines (ELISA); assay type: cell-based; details: H1792 cells; pre-incubated 3 h, 1.0 ng/ml; P1 24 h
[2] = system: LPS-stimulated PBMCs; test: Cytokine secretion from LPS-stimulated PBMCs treated with plantakines (multiplex Luminex); assay type: cell-based, human
Protocol: The bioactivity of our plantakines IL-37b and IL-38 was assessed by monitoring the secretion of 11 cytokines, generally regarded as inflammatory markers, from PBMCs stimulated with an IA. Freshly isolated human PBMCs were subjected to various treatments-combinations of the IAs with the plantakines at different concentrations. Two different model IAs were used, either the bacterial lipopolysaccharides (LPS) or a lectin from Phaseolus vulgaris (phytohaemagglutinin, PHA); each of the IAs was applied onto cells separately, each IA was applied at two concentrations: […]; PHA at 5 and 10 μg/mL. Each IA at each concentration was applied in combination with one of the two plantakines, each of them at three different concentrations: 1, 10 and 100 ng/ml of the monomeric forms present in the purified extracts. Also included were treatments comprised of either IA at their lower concentrations, in combination with both plantakines at 10 ng/ml concentration in order to assess possible synergistic effects. Cells with only IAs applied represented the reference (positive controls for each concentration), cells without any treatment represented the basal level (negative control). The levels of eleven different pro-inflammatory cytokines secreted into the medium from the PBMCs-GM-SCF, IFNγ. TNFα, IL-1α, IL-1β, IL-6, IL-8, IL-22, IL12, IL-17 and IL-10 were compared between the treatments and the controls. We applied Generalized Estimating Equation (GEE) model for the statistical data analysis. This statistical approach allows for nested observations and was used to test the effects of the plantakines IL-37b and IL-38 and their dosage in the context of IA-stimulated PBMCs inflammatory responses.
After isolation, the PBMCs from each donor separately were counted, plated in equal numbers per well and stimulated for 24 h with the applied treatments. Control wells on the plate contained media only (as basal level controls), and LPS and PHA (as positive controls at their corresponding concentrations). After the 24 h treatments stimulation the PBMCs' culture supernatants were used in the multiplex Luminex platform-assisted analysis of the concentrations of the 11 secreted pro-inflammatory cytokines.
The whole blood from 5 random human donors was collected in ACD Vacutainer tubes and immediately processed for isolation of PBMCs by gradient density centrifugation using Lympholyte. […] 5% CO2 and >80% humidity. PBMCs were treated with one of two IAs at 2 concentrations each ([…]; PHA at 5 and 10 μg/mL) in combination with two test items (plant-produced IL-37b or IL-38) at three concentrations each (1, 10 and 100 ng/ml), based on the monomeric form amounts estimated with densitometry (ImageJ). Each treatment was tested in triplicates. Control wells contained media only (negative control, basal level of detection) and the examined IAs at both tested concentrations as the positive controls. The PBMCs were incubated for 24 hours after the stimulation for analysis of the levels of the secreted cytokines that were determined in the culture supernatant using a multiplex immunoassay (MAGPix®, Luminex), analytes were selected from the Milliplex panel HCYTOMAG-60K, sensitivity range of […]. All parameters of the Milliplex panel cytokines analysis using Luminex platform were validated (Millipore-Sigma).
Non-linear logarithm transformation was performed to address non-normality of distribution of Luminex-derived numeric data. Generalized Estimating Equation (GEE) method was used in the analysis of nested (correlated) structure of the data. Secreted inflammatory cytokine values were used as dependent variables and test item (plantakines) with dosage as independent predictors (factors). Separate analyses were conducted for each of the 11 monitored cytokines and each inflammatory agent/concentration combination. Analysis was performed using SPSS software version 27 using the level of significance 0.05 (p-values <0.05 are reported as statistically significant). […]

B1: plant-produced recombinant human IL-38, mature form C2-W152 with C-terminal 7xHIS tag (ligand)
chain: CSLPMARYYIIKYADQKALYTRDGQLLVGDPVADNCCAEKICILPNRGLARTKVPIFLGIQGGSRCLACVETEEGPSLQLEDVNIEELYKGGEEATRFTFFQSSSGSAFRLEAAAWPGWFLCGPAEPQQPVQLTKESEPSARTKFYFEQSWHHHHHHH
notes: range 2-152; also called rhIL-38; plantakine IL-38
With B1 the “attenuation of IL-6 secretion triggered by P1” value [1] was −60%, the “secreted GM-CSF level modulation vs positive control” value ([2]; 1 ng/mL, LPS 150 pg/mL) was −59.4%, p < 0.001 and the “secreted IL-1α level modulation vs positive control” value ([2]; 1 ng/mL, LPS 150 pg/mL) was −25.9%, p < 0.001. The “secreted IL-1β level modulation vs positive control” value ([2]; 1 ng/mL, LPS 150 pg/mL) was −27.4%, p < 0.001, the “secreted IL-6 level modulation vs positive control” value ([2]; 1 ng/mL, LPS 150 pg/mL) was −7.7%, p = 0.178 and the “secreted IL-8 level modulation vs positive control” value ([2]; 1 ng/mL, LPS 150 pg/mL) was 22.1%, p = 0.625. For the same molecule, the “secreted IL-10 level modulation vs positive control” value ([2]; 1 ng/mL, LPS 150 pg/mL) was −14.8%, p = 0.040, the “secreted IL-12 level modulation vs positive control” value ([2]; 1 ng/mL, LPS 150 pg/mL) was 14.9%, p = 0.607 and the “secreted IL-17 level modulation vs positive control” value ([2]; 1 ng/mL, LPS 150 pg/mL) was −21.3%, p = 0.004. For the same molecule, the “secreted IL-22 level modulation vs positive control” value ([2]; 1 ng/mL, LPS 150 pg/mL) was −38.1%, p = 0.065, the “secreted TNFα level modulation vs positive control” value ([2]; 1 ng/mL, LPS 150 pg/mL) was −36.9%, p = 0.035 and the “secreted GM-CSF level modulation vs positive control” value ([2]; 1 ng/mL, LPS 300 pg/mL) was −14.1%, p = 0.118. For the same molecule, the “secreted IFNγ level modulation vs positive control” value ([2]; 1 ng/mL, LPS 300 pg/mL) was −16.5%, p = 0.006, the “secreted IL-1α level modulation vs positive control” value ([2]; 1 ng/mL, LPS 300 pg/mL) was −7.7%, p = 0.178 and the “secreted IL-1β level modulation vs positive control” value ([2]; 1 ng/mL, LPS 300 pg/mL) was −13.1%, p < 0.001. For the same molecule, the “secreted IL-6 level modulation vs positive control” value ([2]; 1 ng/mL, LPS 300 pg/mL) was −5.8%, p = 0.323, the “secreted IL-10 level modulation vs positive control” value ([2]; 1 ng/mL, LPS 300 pg/mL) was 6.2%, p = 0.006 and the “secreted IL-12 level modulation vs positive control” value ([2]; 1 ng/mL, LPS 300 pg/mL) was 1.9%, p = 0.906. For the same molecule, the “secreted IL-17 level modulation vs positive control” value ([2]; 1 ng/mL, LPS 300 pg/mL) was −28.8%, p < 0.001, the “secreted IL-22 level modulation vs positive control” value ([2]; 1 ng/mL, LPS 300 pg/mL) was −40.0%, p < 0.001 and the “secreted TNFα level modulation vs positive control” value ([2]; 1 ng/mL, LPS 300 pg/mL) was −49.3%, p = 0.184. The “secreted GM-CSF level modulation vs positive control” value ([2]; 10 ng/mL, LPS 150 pg/mL) was 7.3%, p = 0.230, the “secreted IFNγ level modulation vs positive control” value ([2]; 10 ng/mL, LPS 150 pg/mL) was −16.5%, p = 0.012 and the “secreted IL-1α level modulation vs positive control” value ([2]; 10 ng/mL, LPS 150 pg/mL) was −14.8%, p < 0.001. For the same molecule, the “secreted IL-1β level modulation vs positive control” value ([2]; 10 ng/mL, LPS 150 pg/mL) was −13.1%, p = 0.002, the “secreted IL-6 level modulation vs positive control” value ([2]; 10 ng/mL, LPS 150 pg/mL) was 0.0%, p = 1.000 and the “secreted IL-8 level modulation vs positive control” value ([2]; 10 ng/mL, LPS 150 pg/mL) was 8.3%, p = 0.639. The “secreted IL-10 level modulation vs positive control” value ([2]; 10 ng/mL, LPS 150 pg/mL) was −3.9%, p = 0.264, the “secreted IL-12 level modulation vs positive control” value ([2]; 10 ng/mL, LPS 150 pg/mL) was 51.1%, p = 0.522 and the “secreted IL-17 level modulation vs positive control” value ([2]; 10 ng/mL, LPS 150 pg/mL) was −16.5%, p = 0.012. The “secreted IL-22 level modulation vs positive control” value ([2]; 10 ng/mL, LPS 150 pg/mL) was −29.4%, p = 0.008, the “secreted TNFα level modulation vs positive control” value ([2]; 10 ng/mL, LPS 150 pg/mL) was −44.0%, p = 0.116 and the “secreted GM-CSF level modulation vs positive control” value ([2]; 10 ng/mL, LPS 300 pg/mL) was 29.1%, p < 0.001. The “secreted IFNγ level modulation vs positive control” value ([2]; 10 ng/mL, LPS 300 pg/mL) was −24.4%, p = 0.018, the “secreted IL-1α level modulation vs positive control” value ([2]; 10 ng/mL, LPS 300 pg/mL) was 2.0%, p = 0.550 and the “secreted IL-1β level modulation vs positive control” value ([2]; 10 ng/mL, LPS 300 pg/mL) was −2.0%, p = 0,550. For the same molecule, the “secreted IL-6 level modulation vs positive control” value ([2]; 10 ng/mL, LPS 300 pg/mL) was 2.0%, p = 0.736, the “secreted IL-8 level modulation vs positive control” value ([2]; 10 ng/mL, LPS 300 pg/mL) was −5.8%, p = 0.469 and the “secreted IL-10 level modulation vs positive control” value ([2]; 10 ng/mL, LPS 300 pg/mL) was 8.3%, p = 0.178. The “secreted IL-12 level modulation vs positive control” value ([2]; 10 ng/mL, LPS 300 pg/mL) was 10.6%, p = 0.586, the “secreted IL-17 level modulation vs positive control” value ([2]; 10 ng/mL, LPS 300 pg/mL) was −31.6%, p < 0.001 and the “secreted IL-22 level modulation vs positive control” value ([2]; 10 ng/mL, LPS 300 pg/mL) was −45.0%, p < 0.001. For the same molecule, the “secreted TNFα level modulation vs positive control” value ([2]; 10 ng/mL, LPS 300 pg/mL) was −40.5%, p = 0.311, the “secreted GM-CSF level modulation vs positive control” value ([2]; 100 ng/mL, LPS 150 pg/mL) was 21.2%, p = 0.013 and the “secreted IFNγ level modulation vs positive control” value ([2]; 100 ng/mL, LPS 150 pg/mL) was −40.5%, p = 0.008. The “secreted IL-1α level modulation vs positive control” value ([2]; 100 ng/mL, LPS 150 pg/mL) was −3.9%, p = 0.380, the “secreted IL-1β level modulation vs positive control” value ([2]; 100 ng/mL, LPS 150 pg/mL) was −13.1%, p = 0.002 and the “secreted IL-6 level modulation vs positive control” value ([2]; 100 ng/mL, LPS 150 pg/mL) was 0.0%, p = 1.000. For the same molecule, the “secreted IL-8 level modulation vs positive control” value ([2]; 100 ng/mL, LPS 150 pg/mL) was −9.5%, p = 0.077, the “secreted IL-10 level modulation vs positive control” value ([2]; 100 ng/mL, LPS 150 pg/mL) was −30.2%, p < 0.001 and the “secreted IL-12 level modulation vs positive control” value ([2]; 100 ng/mL, LPS 150 pg/mL) was 17.2%, p = 0.544. For the same molecule, the “secreted IL-17 level modulation vs positive control” value ([2]; 100 ng/mL, LPS 150 pg/mL) was −24.4%, p = 0.025, the “secreted IL-22 level modulation vs positive control” value ([2]; 100 ng/mL, LPS 150 pg/mL) was −23.7%, p = 0.241 and the “secreted TNFα level modulation vs positive control” value ([2]; 100 ng/mL, LPS 150 pg/mL) was −34.3%, p = 0.232. The “secreted GM-CSF level modulation vs positive control” value ([2]; 100 ng/mL, LPS 300 pg/mL) was 88.8%, p < 0.001, the “secreted IFNγ level modulation vs positive control” value ([2]; 100 ng/mL, LPS 300 pg/mL) was −21.3%, p < 0.001 and the “secreted IL-1α level modulation vs positive control” value ([2]; 100 ng/mL, LPS 300 pg/mL) was 6.2%, p = 0.188. The “secreted IL-1β level modulation vs positive control” value ([2]; 100 ng/mL, LPS 300 pg/mL) was 2.0%, p = 0.648, the “secreted IL-6 level modulation vs positive control” value ([2]; 100 ng/mL, LPS 300 pg/mL) was 0.0%, p = 1.000 and the “secreted IL-8 level modulation vs positive control” value ([2]; 100 ng/mL, LPS 300 pg/mL) was 46.2%, p = 0.500. The “secreted IL-10 level modulation vs positive control” value ([2]; 100 ng/mL, LPS 300 pg/mL) was −28.8%, p < 0.001, the “secreted IL-12 level modulation vs positive control” value ([2]; 100 ng/mL, LPS 300 pg/mL) was 17.4%, p = 0.271 and the “secreted IL-17 level modulation vs positive control” value ([2]; 100 ng/mL, LPS 300 pg/mL) was −30.2%, p < 0.001. The “secreted IL-22 level modulation vs positive control” value ([2]; 100 ng/mL, LPS 300 pg/mL) was −31.8%, p = 0.003, the “secreted TNFα level modulation vs positive control” value ([2]; 100 ng/mL, LPS 300 pg/mL) was −13.1%, p = 0.581 and the “Decreased secretion: number of treatments with statistically significant modulation” value ([2]; LPS 150 pg/mL) was 16. For the same molecule, the “Increased secretion: number of treatments with statistically significant modulation” value ([2]; LPS 150 pg/mL) was 1, the “Decreased secretion: number of treatments with statistically significant modulation” value ([2]; LPS 300 pg/mL) was 12 and the “Increased secretion: number of treatments with statistically significant modulation” value ([2]; LPS 300 pg/mL) was 2.
